Patent publication US20190309044A1, “POLYPEPTIDES AND USES THEREOF AS A DRUG FOR TREATMENT OF AUTOIMMUNE DISORDERS” (Compugen Ltd., priority 2017, published 2019)

Columns and labels:
NOD mice = assay: Type 1 diabetes incidence in NOD mice; format: in vivo, mouse; conditions: Study III; p<0.001
Description: The effect of C1ORF32 ECD-Fc treatment on modulation of disease incidence was tested in NOD mice, which spontaneously develop a T1D disease. In NOD mice, autoreactive CD4+ can be observed within the β-islets as early as 2 weeks of age (Yang et al., Immunity. 1996 February; 4(2):189-94), and by 10 weeks of age, when the treatment with C1ORF32 ECD-Fc (SEQ ID NO: 42) began in the present experiments, NOD mice develop peri-insulitis and β-cell loss (Jimeno et al., Immunology and Cell Biology. (2010) 88, 734-745).
Materials: C1ORF ECD-Fc (SEQ ID NO:42) was used in these studies, as described below. Control Ig was mouse IgG2a from BioXcell (Cat# BE0085). NOD mice were purchased from Jackson labs, and blood glucose was measured via sampling a small drop of blood from the tail vein.
Methods: Six week old NOD mice were purchased from Jackson labs. […] Blood glucose levels were monitored weekly from 8 weeks of age until the mice reached […] of age as detailed below. Mice were considered diabetic upon having two consecutive blood glucose readings of >250 mg/dL. Diabetic mice were sacrificed on the day of the second high glucose level reading. Blood glucose levels were obtained from the tail vein, and the level of blood glucose measured via use of a OneTouch. […]

[1] = system: female C57BL/6 recipient mice; assay: HY bone marrow transplantation model, chimerism and T cell subtypes by FACS; format: in vivo, mouse
Source text: A transplantation model utilizing male bone marrow (BM) cells from C57BL/6 mice transplanted into female mice of the same starin was used to study whether C1ORF32 ECD-Fc induces immune tolerance. In this model BM cells of the male mouse are rejected by the female recipients due to mismatch in the minor histocompatibility antigen encoded by the Y chromosome (Hya). To allow identification of the male cells in the female mice blood, male mice expressing CD45.1 isotype were selected while the female mice carry CD45.2 isotype. This model provides a tool for testing the effect of potential drugs on induction of tolerance towards the grafted cells.
In this model, C1ORF32 ECD-Fc (SEQ ID NO:42) treatment started one week before bone marrow transplantation and continued for five weeks. Female recipient mice were followed for percentage of CD45.1+ and CD45.2+ cells present within the blood.
Female C57BL/6 recipient mice (CD45.2+) were sub-lethally irradiated with 200 rads/cGy 24 hours before transplantation of either female C57Bl/6 (CD45.1+) or male C57Bl/6 (CD45.1+) 5×10^6 bone marrow cells. Recipient mice were allocated into treatment groups as detailed below (n=6 per group). Treatments were given at 300 ug/dose i.p, 3×/wk starting one week prior to transplantation and continued for 4 weeks following transplantation, giving a total of 15 treatments during this 5 weeks period.
1. Female CD45.1 into female CD45.2 2. Male CD45.1 into female CD45.2+ anti-CD40L (300 ug/dose) (Clone MR-1; BioXCell, Cat#BE0017-1) 3. Male CD45.1 into female CD45.2+C1ORF ECD-Fc (SEQ ID NO:42) (300 ug/dose)2 4. Male CD45.1 into female CD45.2+ Control Ig (mouse IgG2a) (300 ug/dose)
Beginning at 2 weeks following bone marrow transplantation, blood samples from the tail were collected from each mouse once a week for 4 weeks. Approximately 2-3 drops of blood were collected per mouse into 200 ul of PBS+EDTA (50 mM), samples were spun down, and RBCs lysed with ammonium chloride. The cells were washed 3× with PBS, stained with the viability dye Aqua Dead Cell Stain (Invitrogen; Cat#L34957), blocked with Fc Receptor block (anti-mouse CD16/32; eBioscience; Cat#14-0161-86), and stained with anti-mouse CD45.1 APC-Cy7 (eBiosciences; Cat#47-0453-80) and anti-mouse CD45.2 FITC (eBioscience; Cat#11-0454-82). The analysis for chimerism was determined by flow cytometric analysis (on total live cells) for the percentage of CD45.1+ versus CD45.2+ cells present in the blood of female recipient mice.
During weeks 6, 7, and 8 the blood samples were also stained to determine the percentage of CD4+ Teff cells and CD4+ Treg cells present within the blood using the cellular markers CD44, CD25, and FoxP3. Details of the Abs used in the flow panels for weeks 6, 7, and 8 are listed below.

B1: C1ORF32 ECD-Fc (SEQ ID NO:42): human-mouse fusion protein: human C1ORF32 ECD fused to mouse immunoglobulin Fc (SEQ ID NO:42) (protein)
chain: LQVTVPDKKKVAMLFQPTVLRCHFSTSSHQPAVVQWKFKSYCQDRMGESLGMSSTRAQSLSKRNLEWDPYLDCLDSRRTVRVVASKQGSTVTLGDFYRGREITIVHDADLQIGKLMWGDSGLYYCIITTPDDLEGKNEDSVELLVLGRTGLLADLLPSFAVEIMGSENLYFQGSGEPRGPTIKPCPPCKCPAPNLLGGPSVFIFPPKIKDVLMISLSPIVTCVVVDVSEDDPDVQISWFVNNVEVHTAQTQTHREDYNSTLRVVSALPIQHQDWMSGKEFKCKVNNKDLPAPIERTISKPKGSVRAPQVYVLPPPEEEMTKKQVTLTCMVTDFMPEDIYVEWTNNGKTELNYKNTEPVLDSDGSYFMYSKLRVEKKNWVERNSYSCSVVHEGLHNHHTTKSFSRTPGK
modifications: Fusion protein human C1ORF32-ECD fused to mouse IgG2a Fc
incidence of T1D in comparison to Control Ig and PBS (NOD mice): significantly decreased incidence of T1D
male CD45.1+ cells in the blood of recipient females ([1]; by week 4 post transplantation, maintained until week 8, 300 ug/dose i.p. 3x/wk 5 weeks): highly significant number of male CD45.1+ cells were present
effector/memory CD4+ T cells (CD45.1+/CD4+/CD44hi) in blood ([1]; week 6, vs Control Ig): decrease
CD45.2+ and CD4+ T cells within the spleen ([1]; week 8, vs Control Ig): lower percentage and number
donor Tregs (FoxP3+CD25+) in blood ([1]; week 8, vs Control Ig): significant increase
donor activated CD4+ T cells (FoxP3-CD25+) in blood ([1]; week 8, vs Control Ig): decrease
donor effector/memory CD4+ T cells (CD44hi) in blood ([1]; week 8, vs Control Ig): significant increase
recipients' CD45.2+ T cell populations in blood ([1]; week 8, vs Control Ig): No differences
